Assay results published in US20260069656A1, “Nutritive Polypeptides and Formulations Thereof, and Methods of Production and Use Thereof” (Axcella Health Inc., priority 2013, published 2026).
Substitutions are numbered along the chain they refer to.

B1: SEQID-00100: nutritive polypeptide (protein, listed as Lactobacillus acidophilus)
chain: MSEEEIFNKIKDLIADNFEVDKDSITENTNFMNDLDADSIDLVEFILQLEDEFGAEIPDDEAEKIKTVGDAVSYIKSHQG
B2: SEQID-00622: protein of the 168 nutritive polypeptide library (protein, listed as Oryza sativa)
chain: MASEGAVSPAFAYTVVYVKDVAKSAAFYSAAFGYTVRRLDQSHKWAELESGTTTIAFTPLHQRETDALTGAVQLPDSAGERGPVEICFDYADVDAAYRRAVDSGAVPVSPPEQKSWGQKVGYVRDIDGIIVRMGSHVRA
modifications: subsp. japonica
notes: protein of the 168 nutritive polypeptide library
B3: SEQID-00098: nutritive polypeptide (protein, listed as Lactococcus lactis)
chain: MAVFEKVQDIIVDELGKEKEEVTLETSFEELDADSLDLFQIINDIEDEFDVEVDTEADMKTVADLVKYVENNK
B4: SEQID-00305: nutritive polypeptide (protein, listed as Bos taurus)
chain: MPHQYPALTPEQKKELCDIAHRIVAPGKGILAADESTGSIAKRLQSIGTENTEENRRFYRQLLLTADDRVNPCIGGVILFHETLYQKADDGRPFPQVIKAKGGVVGIKVDKGVVPLAGTNGETTTQGLDGLSERCAQYKKDGADFAKWRCVLKIGEHTPSSLAIMENANVLARYASICQQNGIVPIVEPEILPDGDHDLKRCQYVTEKVLAAVYKALSDHHIYLEGTLLKPNMVTPGHACTQKYSHEEIAMATVTALRRTVPPAVPGITFLSGGQSEEEASINLNAINKCPLLKPWALTFSYGRALQASALKAWGGKKENLKAAQEEYVKRALANSLACQGKYTPSGKAGAAASESLFISNHAY
B5: SEQID-00241: nutritive polypeptide (protein, listed as Bos taurus)
chain: SELKKDIDDLELTLAKVEKEKHATENKVKNLTEEMAGLDETIAKLTKEKKALQEAHQQTLDDLQAEEDKVNTLTKAKTKLEQQVDDLEGSLEQEKKLRMDLERAKRKLEGDLKLA
B6: SEQID-00220: nutritive polypeptide (protein, listed as Bos taurus)
chain: DTKKKVDDDLGTIENLEEAKKKLLKDVEVLSQRLEEKALAYDKLEKTKTRLQQELDDLLVDLDHQ
B7: SEQID-00269: nutritive polypeptide (protein)
chain: B6 chain with T2L, V6L, I13L, A19L, V27L, V29L, K37L, V60L
B8: SEQID-00302: nutritive polypeptide (protein)
chain: MAKKTVANLSASELSGKKVLVRADFNVPLDNGSISDDTRIRAALPTIQDLTSKGAKVILSSHFGRPQGQVVESMRLTPVAARLSELLGKTVKKCDDCIGEEVAVAVGAMSDGDVLLLENVRFHAAEEKNDPEFAKQLASVADLYVNDAFGTAHRAHASTEGVTKYLSPCVAGYLIEKELQFLQGAIESPQRPLAAIIGGSKVSSKIGVIEALLDKCDKLLLGGGMIFTFYKARGLSVGNSLVEEDKLELAKSLEAKAKEKGVTMLLPTDVVLADKFAADADSQTVSVEAIPDGWMGLDIGPDSVKVFQEALGDCKTVLWNGPMGVFEFEKFAAGTRAIAQTLAELTSTGTTTIIGGGDSVAAVEQLNLGEKMSHISTGGGASLELLEGKQLPGIVALDDA
modifications: Arthrospira platensis C1
notes: nutritive polypeptide
B9: SEQID-00226: nutritive polypeptide (protein, listed as Bos taurus)
chain: QLQALQAQLTDTKKKVDDDLGTIENLEEAKKKLLKDVEVLSQRLEEKALAYDKLEKTKTRLQQELDDLLVDLDHQRQIVSNLEKKQKKFDQLLAEEKNIS
B10: SEQID-00510: nutritive polypeptide naturally produced in Turkey, recombinantly expressed in E. coli (protein)
chain: MVPIAEKMAEKQEEPSNTQNGEPDNAEEGEGKKKKKVKREDLPPFEIVTGERLPAIFFKFQFRNVEYSSGRNKTFLCYVVETQGKESTTSRGYLEDEHAASHAEIAFFNTILPKCESSLRYNITWYVSSSPCVTCADRISETLRKNKNLRLTIMVGRLFMWEEPEMQAALKKMKSAGCKLRIMKPQDFEYVWQNFVEQEEGEEAKAFVPWEDIQENFQYYEEKLAEILQ
modifications: Meleagris gallopavo
notes: nutritive polypeptide naturally produced in Turkey, recombinantly expressed in E. coli
B11: SEQID-00287: nutritive polypeptide (protein, listed as Saccharomyces cerevisiae)
chain: LVLGALLDTSHKFRNLDKDLCEKCAKCISMIGVLDVTKHEFKRTTYSENEVYDLNDSVQTIKFLIWVINDILV
modifications: strain ATCC 204508 / S288c
notes: nutritive polypeptide
B12: SEQID-00001 (HEK293): nutritive polypeptide (protein, listed as Gallus gallus)
chain: MGSIGAASMEFCFDVFKELKVHHANENIFYCPIAIMSALAMVYLGAKDSTRTQINKVVRFDKLPGFGDSIEAQCGTSVNVHSSLRDILNQITKPNDVYSFSLASRLYAEERYPILPEYLQCVKELYRGGLEPINFQTAADQARELINSWVESQTNGIIRNVLQPSSVDSQTAMVLVNAIVFKGLWEKAFKDEDTQAMPFRVTEQESKPVQMMYQIGLFRVASMASEKMKILELPFASGTMSMLVLLPDEVSGLEQLESIINFEKLTEWTSSNVMEERKIKVYLPRMKMEEKYNLTSVLMAMGITDVFSSSANLSGISSAESLKISQAVHAAHAEINEAGREVVGSAEAGVDAASVSEEFRADHPFLFCIKHIATNAVLFFGRCVSP
modifications: expressed in HEK293
B13: SEQID-00690: engineered secreted variant of SEQID-00407 enriched in essential amino acids which retains enzymatic activity (protein, listed as Bacillus subtilis)
chain: ETANKSNELTAPSIKSGTILHAWNWSFNTLKHNMKDIHDAGYTAIQTSPINQVKEGNQGDKSMSNWYWLYQPTSYQIGNRYLGTEQEFKEMCAAAEEYGIKVIVDAVINHTTSDLVGVLSNEVKSIPNWTHGNTQIKNWSDRWDVTQNSLLGLYDWNTQNTQVQSYLKRFLDRALNDGADGFRFDAAKHIELPDDGSYGSQFWPNITRVVMEFQYGEILQDSASRDAAYANYMDVTASNYGHSIRSALKNRNLGVSNIVMYILRVSADKLVTWVESHDTYANDDEESTWMSDDDIRLGWAVIASRSGSTPLFFSRPEGGGNGVRFPGKSQIGDRGSALFEDQAITAVNRFHNVMAGLPKRLSNPNGNNQIFMNQRGSHGVVLANAGSSSVSINTATKLPDGRYDNKAGAGSFQVNDGKLTGTINARSVAVLYPDDIAKAPHVFLENYKTGVTHSFNDQLTITMRADANTTKAVYQINNGPETAFKDGDQFTIGKGDPFGKTYTIMLKGTNSDGVTRTEKYSFVKRDPASAKTIGYQNPNHWSQVNAYIYKHDGSRVIELTGSWPGKPMTKNADGIYTLTLPADTDTTNAKVIFNNGSAQVPGQNQPGFDYVLNGLYNDSGLSGSLPH
modifications: strain 168

Assay: Thermostability, ProteoStat Thermal Shift Stability Kit, temperature of aggregation
Format: physicochemical
Conditions: pH 2.8; NS = protein not soluble
Method: Thermostability. The thermostability of proteins in a buffer cocktail of Citric Acid and Dibasic Sodium Phosphate over a pH range of 2.8 to 7.1 (preparation described above in Table E31B) was determined using the ProteoStat® Thermal Shift Stability Kit (Enzo Life Sciences) according to the manufacturer's standard protocol. Briefly, protein solutions (˜10 mg/ml) containing 1× ProteoStat TS Detection Reagent were heated from 25° C. to 95° C. at a rate of 0.5° C. per 30 sec using a real-time PCR (rtPCR) thermocycler (BioRad) equipped with a plate reader (SynergyMx, Biotek) while monitoring the fluorescence with a Texas Red filter.

| Molecule | Tagg pH 2.8 |
| --- | --- |
| B1 | 95 |
| B2 | 58.5 |

Same assay, conditions: pH 3.7; NS = protein not soluble

| Molecule | Tagg pH 3.7 |
| --- | --- |
| B1 | 95 |
| B2 | 42 |

Same assay, conditions: pH 3.9; NS = protein not soluble

| Molecule | Tagg pH 3.9 |
| --- | --- |
| B1 | 95 |
| B2 | 42 |

Same assay, conditions: pH 4.3; NS = protein not soluble

| Molecule | Tagg pH 4.3 |
| --- | --- |
| B1 | 83 |
| B2 | 43.5 |

Same assay, conditions: pH 4.6; NS = protein not soluble

| Molecule | Tagg pH 4.6 |
| --- | --- |
| B1 | 84 |
| B2 | 43.5 |

Same assay, conditions: pH 5.0; NS = protein not soluble

| Molecule | Tagg pH 5.0 |
| --- | --- |
| B1 | 95 |
| B2 | 42.5 |

Same assay, conditions: pH 5.6; NS = protein not soluble

| Molecule | Tagg pH 5.6 |
| --- | --- |
| B1 | 95 |
| B2 | 45.5 |

Same assay, conditions: pH 6.0; NS = protein not soluble

| Molecule | Tagg pH 6.0 |
| --- | --- |
| B1 | 95 |
| B2 | 46 |

Same assay, conditions: pH 6.5; NS = protein not soluble

| Molecule | Tagg pH 6.5 |
| --- | --- |
| B1 | 95 |
| B2 | 47 |

Same assay, conditions: pH 7.1; heated 25° C. to 95° C.; NS = protein not soluble

| Molecule | Tagg (pH 7.1) |
| --- | --- |
| B1 | >95 |
| B3 | >95 |
| B2 | 95 |

Same assay, conditions: pH 7.1; heated from 25° C. to 95° C.

| Molecule | Tagg (pH 7.1) |
| --- | --- |
| B4 | 48 |
| B5 | >95 |
| B6 | >95 |
| B7 | >95 |
| B8 | 46 |
| B9 | >95 |

Assay: pH solubility screen in Citric Acid / Dibasic Sodium Phosphate buffers
Format: physicochemical
Conditions: lower pH of range
Method: pH Solubility. […] Protein was either lyophilized and then resuspended in buffer cocktail mixtures, or concentrated and then spiked into buffer cocktail mixtures at a final protein concentration of 5 to 30 mg/ml. As a control, protein was also dissolved in a solution of 8 M urea. Protein solutions were shaken for 10 min at room temperature. Turbidity of proteins was determined by measuring the absorbance of protein solutions at 650 nm. The protein solution was then centrifuged for 10 min at 1100×g to pellet undissolved or precipitated protein. The soluble protein fraction (supernatant) was sampled and protein concentration was measured by one or more of the following methods: Coomassie Plus Protein Assay (Pierce), Chip electrophoresis, gel electrophoresis, and/or absorbance at 280 nm. The pH range over which select proteins remained greater than 80% soluble as determined by Bradford and the A650 value are listed in Table E31C.

| Molecule | pH Range where Protein is >80% detected as Soluble and A650 <1 OD: Low |
| --- | --- |
| B1 | 4.3 |
| B10 | 6.5 |
| B5 | 4.3 |
| B11 | 6.2 |
| B7 | 7.2 |
| B2 | 2.8 |
| B9 | 2.6 |

Same assay, conditions: other pH where soluble

| Molecule | pH Range where Protein is >80% detected as Soluble and A650 <1 OD: Other |
| --- | --- |
| B10 | 2.8 |
| B11 | 2.6 |

Same assay, conditions: upper pH of range

| Molecule | pH Range where Protein is >80% detected as Soluble and A650 <1 OD: High |
| --- | --- |
| B1 | 7.1 |
| B10 | 7.1 |
| B5 | 9.1 |
| B11 | 9.1 |
| B7 | 9.1 |
| B2 | 7.1 |
| B9 | 9.1 |

Assay: Intact half-life during simulated gastric fluid (SGF) digestion
Conditions: SGF pH 1.5, pepsin:polypeptide 1:20 w/w, 37° C.; produced in E. coli unless otherwise noted

| Molecule | SGF Half-life (t½) [s] |
| --- | --- |
| B1 | 120 |
| B4 | 12 |
| B10 | 18 |
| B3 | 24 |
| B5 | 18 |
| B11 | 180 |
| B6 | 30 |
| B7 | 2460 |
| B8 | 12 |
| B2 | 396 |
| B12 | 516 |
| B13 | 264 |
| B9 | 42 |

Same assay, conditions: purified proteins, chip electrophoresis, SGF

| Molecule | Half-life [s] |
| --- | --- |
| B10 | 18 |
| B2 | 396 |
